# Test results taken from IntAct's records for PubMed 22778397.
# B1: RNA-binding protein FUS (Homo sapiens), P35637 (parent)
# chain: MASNDYTQQATQSYGAYPTQPGQGYSQQSSQPYGQQSYSGYSQSTDTSGYGQSSYSSYGQSQNTGYGTQSTPQGYGSTGGYGSSQSSQSSYGQQSSYPGYGQQPAPSSTSGSYGSSSQSSSYGQPQSGSYSQQPSYGGQQQSYGQQQSYNPPQGYGQQNQYNSSSGGGGGGGGGGNYGQDQSSMSSGGGSGGGYGNQDQSGGGGSGGYGQQDRGGRGRGGSGGGGGGGGGGYNRSSGGYEPRGRGGGRGGRGGMGGSDRGGFNKFGGPRDQGSRHDSEQDNSDNNTIFVQGLGENVTIESVADYFKQIGIIKTNKKTGQPMINLYTDRETGKLKGEATVSFDDPPSAKAAIDWFDGKEFSGNPIKVSFATRRADFNRGGGNGRGGRGRGGPMGRGGYGGGGSGGGGRGGFPSGGGGGGGQQRAGDWKCPNPTCENMNFSWRNECNQCKAPKPDGPGGGPGGSHMGGNYGDDRRGGRGGYDRGGYRGRGGDRGGFRGGRGGGDRGGFGPGKMDSRGEHRQDRRERPY
# Variants of: B1
# Conditions: with TNPO1, Q92973-2
# TNPO1, Q92973-2, sequence (Q92973 9-898): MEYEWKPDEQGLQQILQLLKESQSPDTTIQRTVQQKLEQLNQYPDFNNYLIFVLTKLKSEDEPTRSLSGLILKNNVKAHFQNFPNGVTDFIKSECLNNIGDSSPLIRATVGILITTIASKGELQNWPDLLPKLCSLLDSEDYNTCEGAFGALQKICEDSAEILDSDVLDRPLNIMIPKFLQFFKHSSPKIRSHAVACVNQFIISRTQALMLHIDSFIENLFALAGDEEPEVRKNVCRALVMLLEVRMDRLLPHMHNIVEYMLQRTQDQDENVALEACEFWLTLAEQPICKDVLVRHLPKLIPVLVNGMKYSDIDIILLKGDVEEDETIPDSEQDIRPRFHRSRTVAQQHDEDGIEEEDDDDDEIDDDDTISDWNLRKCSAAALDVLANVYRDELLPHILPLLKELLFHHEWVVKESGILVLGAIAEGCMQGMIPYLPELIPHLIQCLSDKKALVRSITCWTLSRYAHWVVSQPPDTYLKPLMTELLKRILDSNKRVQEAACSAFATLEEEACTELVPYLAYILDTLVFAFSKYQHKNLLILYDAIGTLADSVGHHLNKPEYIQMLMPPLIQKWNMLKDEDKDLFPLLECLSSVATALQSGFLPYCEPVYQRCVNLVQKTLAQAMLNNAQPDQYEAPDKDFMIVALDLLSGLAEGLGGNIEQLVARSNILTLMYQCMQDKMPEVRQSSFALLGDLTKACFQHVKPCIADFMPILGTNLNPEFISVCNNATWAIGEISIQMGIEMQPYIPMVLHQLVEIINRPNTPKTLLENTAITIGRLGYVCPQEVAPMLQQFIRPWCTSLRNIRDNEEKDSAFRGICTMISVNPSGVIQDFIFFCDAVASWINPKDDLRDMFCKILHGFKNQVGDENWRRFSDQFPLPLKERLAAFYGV
row,Variant,effect of a mutation on the interaction
1,R518A,decreasing interaction strength
2,R524S,decreasing interaction strength
3,Y526A,decreasing interaction strength
4,H517Q,decreasing interaction strength
5,R521C,decreasing interaction strength
6,P508A;G509A;K510A;M511A,decreasing interaction strength
7,P525L,decreasing interaction strength
8,P525A,decreasing interaction strength
9,R522A,decreasing interaction strength
10,R514A;R518A;R521A;R522A,disrupting interaction strength
11,R514A;R518A,decreasing interaction strength
12,R521A;R522A,decreasing interaction strength
13,P525A;Y526A,decreasing interaction strength
